Substrate: CC(=O)Oc1ccc([N+](=O)[O-])cc1
Test: colorimetric esterase assay, Lineweaver-Burk plot
Type: biochemical, Sycon raphanus
Conditions: 15 mM Tris/SO4 pH 7.4, 22 °C, 0.25-3 mM substrate, apparent Km

B1: recombinant carbonic anhydrase (CA) from S. raphanus (Sycon raphanus) (protein)
chain: ASWSYNYGAANGPNNWGMLPGFSTCGNGTKQTPIDIVRASATRQTYPTLSFSGATNETDWTIQNNGHSVAALPTADIWLSGGPLGSKVYKVYNIHIHFGNSSFRASEHSFDGGQRTTGEFHVVTYDRTFSNIGEAVASNRGDALSVFGVLFQAQTGQTYDAGITSLINMAANLTYAGDDYVDGLDFSTMVSALDLQQYYSYMGSLTTPGCAEVVSWIVANRLHYVSPAAIDQLMSLKAGMSATPGIDLQGNTRPLQALNGRTVSRSFDLSGS
notes: carbonic anhydrase domain, lacking signal peptide and transmembrane region; expressed in E. coli, Ni-NTA purified
- Km: 6.2 ± 1.0 mM

Reference: publication PMC3821024, “The enzyme carbonic anhydrase as an integral component of biogenic Ca-carbonate formation in sponge spicules^” (FEBS Open Bio, 2013)
